Laboratory results from the supplement of paper PMC7125110.
± gives the standard error. For part of these data: Fewer inactive variants are shown than the library holds.

B1: glmS ribozyme (parent)
chain: AUAAAAGCGCCAGAACUACAGAAAUGUAGUUGACGAGGAGGAGGUUUAUCGAAUUUUCGGCGGAUGCCUCCAAA

Key:
Settings in all cases: with glucosamine-6-phosphate
[1] = variants of: B1; assay: kcat; higher = faster cleavage; RNA array
Method in brief: (§1)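 kcat and KM were obtained from weighted Michaelis–Menten fits across concentrations of kobs values. Those came from one- or two-exponential decay fits to per-tile medians normalised to baseline and to non-cleaving reference variants. The variants were barcoded ribozymes transcribed in situ by E. coli RNA polymerase on sequenced MiSeq chips and tracked through a hybridised Cy3 probe at 37 °C, with 40 μM to 10 mM glucosamine-6-phosphate in HEPES/KCl/Mg(OAc)2 buffer flowed in.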

[2] = variants of: B1; assay: self-cleavage kobs at 160 uM GlcN6P; higher = faster cleavage; RNA array
Method in brief: as §1

[3] = variants of: B1; assay: self-cleavage kobs at 640 uM GlcN6P; higher = faster cleavage; RNA array
Method in brief: as §1

[4] = variants of: B1; assay: self-cleavage kobs at 2500 uM GlcN6P; higher = faster cleavage; RNA array
Method in brief: as §1

[5] = variants of: B1; assay: KM; higher = weaker cofactor use; RNA array
Method in brief: as §1

[6] = variants of: B1; assay: self-cleavage kobs at 10000 uM GlcN6P; higher = faster cleavage; RNA array
Method in brief: as §1

[7] = variants of: B1; assay: self-cleavage kobs at 40 uM GlcN6P; higher = faster cleavage; RNA array
Method in brief: as §1

| Variant | kcat [1] | self-cleavage kobs at 160 uM GlcN6P [2] | self-cleavage kobs at 640 uM GlcN6P [3] | self-cleavage kobs at 2500 uM GlcN6P [4] | KM [5] | self-cleavage kobs at 10000 uM GlcN6P [6] | self-cleavage kobs at 40 uM GlcN6P [7] |
| --- | --- | --- | --- | --- | --- | --- | --- |
| AUAAAAGCGCCAAAACUACAGAAAUGUAGUUGACGAGGAGGAGGUUUAUCGAAUUUUCGGCGGAUGCCGCCAAA [G13A U69G] | 6.29e-05 ± 1.9e-05 s⁻¹ | 4.26e-05 ± 1.5e-05 s⁻¹ | 7.5e-05 ± 1.3e-05 s⁻¹ | 6.99e-05 ± 1.7e-05 s⁻¹ |  |  |  |
| AUAAAAGCGCCACAACUACAGAAAUGUAAUUGACGAGGAGGAGGUUUAUCGAAUUUUCGGCGGAUGCCUCCAAA [G13C G29A] | 0.000136 ± 1.6e-05 s⁻¹ |  | 3.33e-05 ± 1.2e-05 s⁻¹ | 5.64e-05 ± 9.9e-06 s⁻¹ | 3.07 ± 0.91 mM | 0.000106 ± 1.2e-05 s⁻¹ |  |
| AUAAAAGCGCCACAACUACAGAAAUGUAGUUCACGAGGAGGAGGUUUAUCGAAUUUUCGGCGGAUGCCUCCAAA [G13C G32C] | 0.000728 ± 0.00016 s⁻¹ | 4.58e-05 ± 1.6e-05 s⁻¹ | 0.000109 ± 2.2e-05 s⁻¹ | 0.000408 ± 7e-05 s⁻¹ | 3.05 ± 1.2 mM | 0.000534 ± 7.8e-05 s⁻¹ |  |
| AUAAAAGCGCCAAAACUACAGAAAUGUAGUUGACGAGGAGGAGGCUUAUCGAAUUUUCGGCGGAUGCCUCCAAA [G13A U45C] | 3.07e-05 ± 4.9e-06 s⁻¹ | < 1e-05 s⁻¹ |  |  |  | 2.82e-05 ± 1.3e-05 s⁻¹ |  |
| AUAAAAGCGCCACAACUACAGAAAUGUAGUUGACGAGGAGGAGGUUUAUCGAAUUUUCGGCGGAUGCCUCCAAA [G13C] | 0.000191 ± 5.2e-06 s⁻¹ |  | 2.7e-05 ± 1.3e-06 s⁻¹ | 6.98e-05 ± 1.4e-06 s⁻¹ | 4.22 ± 0.25 mM | 0.000135 ± 1.8e-06 s⁻¹ |  |
| AUAAAAGCGCCACAAGUACAGAAAUGUAGUUGACGAGGAGGAGGUUUAUCGAAUAUUCGCCGGAUGCCUGCAAA [G13C C16G U55A G60C C70G] | 1.82e-05 ± 7.2e-06 s⁻¹ |  |  |  |  |  |  |
| AUAAAAGCGCCACAACUACAGAAAUGUAGUUGACGAGGAGGAGGUUUAUCGAAUUUUCGGCGGAUGACUCCAAA [G13C C67A] | 5.87e-05 ± 1.1e-05 s⁻¹ |  |  |  | 5.93 ± 2.6 mM | 3.7e-05 ± 9e-06 s⁻¹ |  |
| AUAAAAGCGCCACAACUACAGAAAUGUAGUUGACGAGGAGGAGGUUUAUCGAAUUUUCGGCGGAUACCUCCAAA [G13C G66A] | 6.45e-05 ± 6.3e-06 s⁻¹ |  |  | 4.1e-05 ± 1.2e-05 s⁻¹ | 1.63 ± 0.6 mM | 5.46e-05 ± 1.2e-05 s⁻¹ |  |
| AUAAAAGCGCCACAACUACAGAAAUGUAGUUGGCGAGGAGGAGGUUUAUCGAAUUUUCGGCGGAUGCCUCCAAA [G13C A33G] | < 1e-05 s⁻¹ |  | < 1e-05 s⁻¹ |  |  | < 1e-05 s⁻¹ |  |
| AUAAAAGCGCCACAACUACAGAAAUGUAGUUGAUUAGGAGGAGGUUUAUCGAAUUUUCGGCGGAUGCCUCCAAA [G13C C34U G35U] | < 1e-05 s⁻¹ | < 1e-05 s⁻¹ |  | < 1e-05 s⁻¹ |  | < 1e-05 s⁻¹ | < 1e-05 s⁻¹ |
